Experiments:
Type in all cases: biochemical
[1] = carboxylate reductase activity, pimelate to pimelate semialdehyde, NADPH consumption at 340 nm; settings: purified enzyme enhanced by sfp gene product, 2 mM pimelate, pH 7.5, room temperature, 20 min; FIG. 8
Method: A nucleotide sequence encoding a HIS-tag was added to the nucleic acid sequences from Segniliparus rugosus and Segniliparus rotundus that encode the carboxylate reductases of SEQ ID NOs: 4 (EFV11917.1) and 6 (ADG98140.1), respectively (see FIG. 6), such that N-terminal HIS tagged carboxylate reductases could be produced. Each of the modified genes was cloned into a pET Duet expression vector along with a sfp gene encoding a HIS-tagged phosphopantetheine transferase from Bacillus subtilis, both under the T7 promoter. Each expression vector was transformed into a BL21[DE3] E. coli host and the resulting recombinant E. coli strains were cultivated at 37° C. in a 250 mL shake flask culture containing 50 mL LB media and antibiotic selection pressure, with shaking at 230 rpm. Each culture was induced overnight at 37° C. using an auto-induction media.
The pellet from each induced shake flask culture was harvested via centrifugation. Each pellet was resuspended and lysed via sonication, and the cell debris was separated from the supernatant via centrifugation. […]
Enzyme activity assays (i.e., from pimelate to pimelate semialdehyde) were performed in triplicate in a buffer composed of a final concentration of 50 mM HEPES buffer (pH=7.5), 2 mM pimelate, 10 mM MgCl2, 1 mM ATP and 1 mM NADPH. […] The consumption of NADPH was monitored by absorbance at 340 nm. […]

[2] = carboxylate reductase activity, N7-acetyl-7-aminoheptanoate to N7-acetyl-7-aminoheptanal, NADPH consumption at 340 nm; settings: purified enzyme enhanced by sfp gene product, 2 mM N7-acetyl-7-aminoheptanoate, pH 7.5, room temperature, 20 min; FIG. 10
Method: The activity of each of the N-terminal His-tagged carboxylate reductases of SEQ ID NOs: 3, 5, and 6 (see Examples 2 and 3, and FIG. 6) for converting N7-acetyl-7-aminoheptanoate to N7-acetyl-7-aminoheptanal was assayed in triplicate in a buffer composed of a final concentration of 50 mM HEPES buffer (pH=7.5), 2 mM N7-acetyl-7-aminoheptanoate, 10 mM MgCl2, 1 mM ATP, and 1 mM NADPH. The assays were initiated by adding purified carboxylate reductase and phosphopantetheine transferase or the empty vector control to the assay buffer containing the N7-acetyl-7-aminoheptanoate then incubated at room temperature for 20 min. The consumption of NADPH was monitored by absorbance at 340 nm.

[3] = carboxylate reductase activity, pimelate semialdehyde to heptanedial, NADPH consumption at 340 nm; settings: purified enzyme enhanced by sfp gene product, 2 mM pimelate semialdehyde, pH 7.5, room temperature, 20 min; FIG. 11
Method: The N-terminal His-tagged carboxylate reductase of SEQ ID NO: 6 (see Example 3 and FIG. 6) was assayed using pimelate semialdehyde as substrate. The enzyme activity assay was performed in triplicate in a buffer composed of a final concentration of 50 mM HEPES buffer (pH=7.5), 2 mM pimelate semialdehyde, 10 mM MgCl2, 1 mM ATP and 1 mM NADPH. The enzyme activity assay reaction was initiated by adding purified carboxylate reductase and phosphopantetheine transferase or the empty vector control to the assay buffer containing the pimelate semialdehyde and then incubated at room temperature for 20 min. The consumption of NADPH was monitored by absorbance at 340 nm.

acceptance of pimelate as substrate (NADPH consumption) against the empty vector control [1]: accepted pimelate as substrate
B1: SEQ ID NO: 6: Segniliparus rotundus carboxylate reductase, Genbank Accession No. ADG98140.1 (protein)
chain: MTQSHTQGPQASAAHSRLARRAAELLATDPQAAATLPDPEVVRQATRPGLRLAERVDAILSGYADRPALGQRSFQTVKDPITGRSSVELLPTFDTITYRELRERATAIASDLAHHPQAPAKPGDFLASIGFISVDYVAIDIAGVFAGLTAVPLQTGATLATLTAITAETAPTLFAASIEHLPTAVDAVLATPSVRRLLVFDYRAGSDEDREAVEAAKRKIADAGSSVLVDVLDEVIARGKSAPKAPLPPATDAGDDSLSLLIYTSGSTGTPKGAMYPERNVAHFWGGVWAAAFDEDAAPPVPAINITFLPLSHVASRLSLMPTLARGGLMHFVAKSDLSTLFEDLKLARPTNLFLVPRVVEMLYQHYQSELDRRGVQDGTREAEAVKDDLRTGLLGGRILTAGFGSAPLSAELAGFIESLLQIHLVDGYGSTEAGPVWRDGYLVKPPVTDYKLIDVPELGYFSTDSPHPRGELAIKTQTILPGYYKRPETTAEVFDEDGFYLTGDVVAQIGPEQFAYVDRRKNVLKLSQGEFVTLAKLEAAYSSSPLVRQLFVYGSSERSYLLAVIVPTPDALKKFGVGEAAKAALGESLQKIARDEGLQSYEVPRDFIIETDPFTVENGLLSDARKSLRPKLKEHYGERLEAMYKELADGQANELRDIRRGVQQRPTLETVRRAAAAMLGASAAEIKPDAHFTDLGGDSLSALTFSNFLHDLFEVDVPVGVIVSAANTLGSVAEHIDAQLAGGRARPTFATVHGKGSTTIKASDLTLDKFIDEQTLEAAKHLPKPADPPRTVLLTGANGWLGRFLALEWLERLAPAGGKLITIVRGKDAAQAKARLDAAYESGDPKLAGHYQDLAATTLEVLAGDFSEPRLGLDEATWNRLADEVDFISHPGALVNHVLPYNQLFGPNVAGVAEIIKLAITTRIKPVTYLSTVAVAAGVEPSALDEDGDIRTVSAERSVDEGYANGYGNSKWGGEVLLREAHDRTGLPVRVFRSDMILAHQKYTGQVNATDQFTRLVQSLLATGLAPKSFYELDAQGNRQRAHYDGIPVDFTAESITTLGGDGLEGYRSYNVFNPHRDGVGLDEFVDWLIEAGHPITRIDDYDQWLSRFETSLRGLPESKRQASVLPLLHAFARPGPAVDGSPFRNTVFRTDVQKAKIGAEHDIPHLGKALVLKYADDIKQLGLL
acceptance of N7-acetyl-7-aminoheptanoate as substrate (NADPH consumption) against the empty vector control [2]: accepted N7-acetyl-7-aminoheptanoate as substrate
acceptance of pimelate semialdehyde as substrate (NADPH consumption) against the empty vector control [3]: accepted pimelate semialdehyde as substrate

Reference: US20160145657A1, “Methods and Materials for Producing 7-Carbon Chemicals via a C9 Route” (INVISTA North America S.á.r.l., priority 2014, published 2016)
